T1: ADAMTS5 (UniProt Q9UNA0 Q9UNA0:262-622)
T1 sequence: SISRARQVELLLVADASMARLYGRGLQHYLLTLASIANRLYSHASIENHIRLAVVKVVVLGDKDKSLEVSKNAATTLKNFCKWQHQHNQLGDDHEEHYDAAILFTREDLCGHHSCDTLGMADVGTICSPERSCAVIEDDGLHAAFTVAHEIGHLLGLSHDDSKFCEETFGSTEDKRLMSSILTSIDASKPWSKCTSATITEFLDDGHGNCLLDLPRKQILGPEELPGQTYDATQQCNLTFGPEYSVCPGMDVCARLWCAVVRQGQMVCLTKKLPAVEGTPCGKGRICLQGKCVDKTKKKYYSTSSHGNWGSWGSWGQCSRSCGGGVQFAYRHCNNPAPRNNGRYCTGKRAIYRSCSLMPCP


Biological target: T1, ADAMTS5
Assay: inhibition; 10 nM
Settings: tags: R&D Systems
Description: Whether an aptamer having the nucleotide sequence shown in SEQ ID NO: 1 inhibits the enzyme activity of ADAMTS5 was evaluated by the following method. As a substrate of ADAMTS5, the G1-IGD-G2 domain of aggrecan (manufactured by R&D systems) was used. ADAMTS5 specifically cleaves in between the 392nd glutamic acid and the 393rd alanine in the G1-IGD-G2 domain and produces two fragments. These fragments have faster electrophoretic mobility than uncleaved G1-IGD-G2. Thus, the enzyme activity of ADAMTS5 can be measured by quantifying the band intensity of G1-IGD-G2 by SDS-PAGE electrophoresis. The assay was performed in a solution A buffer with a reaction mixture volume of 10 μL. First, a mixture (10 μL) of a nucleic acid and ADAMTS5 was prepared and incubated at 25° C. for 15 min. To a substrate solution (5 μL) diluted with solution A was added a mixture (5 μL) of the nucleic acid and ADAMTS5 to start the enzyme reaction. The final concentration of ADAMTS5 in the reaction solution was 5 nM, and the final substrate concentration was 50 μg/mL. The reaction solution was incubated at 37° C. for 2 hr, 2 μL of solution D was added, and the mixture was heated at 95° C. for 2 min to stop the enzyme reaction of ADAMTS5. Solution D contains 0.25 M tris (pH 6.8), 10% SDS, 50% glycerol, 0.25% bromo phenolblue, and 20% 2-mercaptoethanol. The heat-treated reaction solution was electrophoresed by 7.5% SDS-PAGE and stained with SYPRO Orange (manufactured by Sigma-Aldrich). The staining was performed according to the manual of Sigma-Aldrich and detected using STORM840 manufactured by GE Healthcare. […] The amount of uncleaved substrate in each reaction solution was quantified from the band intensity and the standard curve. The substrate cleavage efficiency of ADAMTS5 under these reaction conditions was 80-100%. The inhibition rate of the test substance was calculated using the following equation.
The aptamers having the sequences shown in SEQ ID NOs: 10(1)-10(8) and 11(1)-11(35), SEQ ID NO: 13-15 were all produced by chemical synthesis.

| Binder | activity [% inhibition] |
| --- | --- |
| AUUGGGGCCUCCACAGCUGCUCAGCUUGGACUAAACCAAU (ssRNA, as SEQ 10 plus 2'-OMe at C8) [10(1)] | 41.3 |
| AUUGGGGCCUCCACAGCUGCUCAGCUUGGACUAAACCAAU (ssRNA, as SEQ 10 plus 2'-OMe at U10) [10(3)] | 2 |
| AUUGGGGCCUCCACAGCUGCUCAGCUUGGACUAAACCAAU (ssRNA, as SEQ 10 plus 2'-OMe at U27) [10(6)] | 61.8 |
| AUUGGGGCCUCCACAGCUGCUCAGCUUGGACUAAACCAAU (ssRNA, as SEQ 10 plus 2'-OMe at C12) [10(5)] | 8.5 |
| AUUGGGGCCUCCACAGCUGCUCAGCUUGGACUAAACCAAU (ssRNA, as SEQ 10 plus 2'-OMe at U32) [10(8)] | 12.8 |
| AUUGGGGCCUCCACAGCUGCUCAGCUUGGACUAAACCAAU (ssRNA, as SEQ 10 plus 2'-OMe at C9) [10(2)] | 12.6 |
| AUUGGGGCCUCCACAGCUGCUCAGCUUGGACUAAACCAAU (ssRNA, as SEQ 10 plus 2'-OMe at C31) [10(7)] | 10.4 |
| AUUGGGGCCUCCACAGCUGCUCAGCUUGGACUAAACCAAU (ssRNA, as SEQ 10 plus 2'-OMe at C11) [10(4)] | 3.6 |
| AUUGGGGCCUCCACAGCGCUCGCUUGGACUAAACCAAU (ssRNA, 2'-OMe at 1-5,15-26,32-38; 2'-F other pyrimidines) [11(1)] | 62.8 |
| AUUGGGGCCUCCACAGCGCUCGCUUGGACUAAACCAAU (mixed, as 11(1) with dT at 10) [11(6)] | 9.2 |
| AUUGGGGCCUCCACAGCGCUCGCUUGGACUAAACCAAU (mixed, as 11(1) with dC at 11) [11(7)] | 23 |
| AUUGGGGCCUCCACAGCGCUCGCUUGGACUAAACCAAU (mixed, as 11(1) with dG at 27) [11(10)] | 59.1 |
| AUUGGGGCCUCCACAGCGCUCGCUUGGACUAAACCAAU (mixed, as 11(1) with dT at 30) [11(13)] | 20.3 |
| AUUGGGGCCUCCACAGCGCUCGCUUGGACUAAACCAAU (mixed, as 11(1) with dC at 9) [11(5)] | 34.2 |
| AUUGGGGCCUCCACAGCGCUCGCUUGGACUAAACCAAU (mixed, as 11(1) with dC at 29) [11(12)] | 62.5 |
| AUUGGGGCCUCCACAGCGCUCGCUUGGACUAAACCAAU (mixed, as 11(1) with dG at 7) [11(3)] | 19.5 |
| AUUGGGGCCUCCACAGCGCUCGCUUGGACUAAACCAAU (mixed, as 11(1) with dC at 14) [11(9)] | 60.8 |
| AUUGGGGCCUCCACAGCGCUCGCUUGGACUAAACCAAU (mixed, as 11(1) with dC at 12) [11(8)] | 43.2 |
| AUUGGGGCCUCCACAGCGCUCGCUUGGACUAAACCAAU (mixed, as 11(1) with dA at 28) [11(11)] | 32 |
| AUUGGGGCCUCCACAGCGCUCGCUUGGACUAAACCAAU (mixed, as 11(1) with dG at 6) [11(2)] | 60.6 |
| AUUGGGGCCUCCACAGCGCUCGCUUGGACUAAACCAAU (mixed, as 11(1) with dA at 13) [11(15)] | 50.4 |
| AUUGGGGCCUCCACAGCGCUCGCUUGGACUAAACCAAU (mixed, as 11(1) with dC at 8) [11(4)] | 50.9 |
| AUUGGGGCCUCCACAGCGCUCGCUUGGACUAAACCAAU (mixed, as 11(1) with dA at 31) [11(14)] | 45.1 |

Reference: patent US20210246451, “APTAMER FOR ADAMTS5 AND USE FOR APTAMER FOR ADAMTS5” (RIBOMIC INC., published 2021)
